Data on one protein can be found in PMC11847488, “Hydroxycinnamoyl-coenzyme A: tetrahydroxyhexanedioate hydroxycinnamoyl transferase (HHHT) from Phaseolus vulgaris L.: phylogeny, expression pattern, kinetic parameters, and active site analysis” (PeerJ, 2025).

Assay in all cases: purified protein
What all share (format): biochemical, Phaseolus vulgaris

Substrate in data set [1]: CC(C)(COP(=O)(O)OP(=O)(O)OC[C@H]1O[C@@H](n2cnc3c(N)ncnc32)[C@H](O)[C@@H]1OP(=O)(O)O)[C@@H](O)C(=O)NCCC(=O)NCCSC(=O)/C=C/c1ccc(O)c(O)c1
The following applies: co-substrate saccharic acid 20 mM, 100 mM sodium phosphate, pH 7.5, 1 mM EDTA, 25 °C.

Substrate in data set [2]: CC(C)(COP(=O)(O)OP(=O)(O)OC[C@H]1O[C@@H](n2cnc3c(N)ncnc32)[C@H](O)[C@@H]1OP(=O)(O)O)[C@@H](O)C(=O)NCCC(=O)NCCSC(=O)/C=C/c1ccc(O)cc1
To be noted: co-substrate saccharic acid 20 mM, 100 mM sodium phosphate, pH 7.5, 1 mM EDTA, 25 °C.

Substrate in data set [3]: COc1cc(/C=C/C(=O)SCCNC(=O)CCNC(=O)[C@H](O)C(C)(C)COP(=O)(O)OP(=O)(O)OC[C@H]2O[C@@H](n3cnc4c(N)ncnc43)[C@H](O)[C@@H]2OP(=O)(O)O)ccc1O
To be noted: co-substrate saccharic acid 20 mM, 100 mM sodium phosphate, pH 7.5, 1 mM EDTA, 25 °C.

Substrate in data set [4]: O=C(O)[C@@H](O)[C@@H](O)[C@H](O)[C@@H](O)C(=O)O
To be noted: co-substrate p-coumaroyl-CoA 100 μM, 100 mM sodium phosphate, pH 7.5, 1 mM EDTA, 25 °C.

Substrate in data set [5]: O=C(O)[C@@H](O)[C@H](O)[C@H](O)[C@@H](O)C(=O)O
The following applies: co-substrate p-coumaroyl-CoA 100 μM, 100 mM sodium phosphate, pH 7.5, 1 mM EDTA, 25 °C.

B1: HHHT (PvHHHT) (Phaseolus vulgaris) (protein)
chain: MVTIVASYRVLPCEETPKGHLWLADSDQVVRSGHTPTFYVYQAKHNHDTNERLRKSLGEILVHYYPVAGRLSLAEDARIQLDCNAKGVTFIEAETTKSMADYGDFSPGVVAELVPKIDYTQPVEEIPLMLVQSTRLPGGNGFVIGLAVCHVLSDGLGSIQFINSWAKLGRGETLEPHELPYLDRTVLKHQHSSTSPSPCFDHPELKPLPLKLGSSDINAEQKKKTRAVLLKLTRQQVEKLKKEANEQPLQEGVRAYSRFEALAGHIWRSASKARELEEKQPTVVRFNADIRSRVIPPLPKNYYGNALAATVTPKCYVGEIVSKPLSYAAQKVREAIEKLTNEYIRSQLKNVLGEEQLDCIRRLFMGEGERRNVPFAGNPNLHITSWMSMPLYEADFGWGKPVNFGLAYVFAQDRAVIILSPHGDGSIVISMTFQEEHLELFKKFFYETI
notes: full length, N-terminal 6xHis tag (pET28a(+)), codon-optimized, E. coli Rosetta 2 (DE3) pLysS, IMAC purified; tag cleavage not mentioned
For orientation: Km means the concentration of substrate that gives half-maximal velocity. For orientation: kcat means the number of substrate molecules converted per active site and unit of time at saturation. In general, kcat/Km refers to the second-order rate constant that governs catalysis at low substrate concentration. In the case of B1, the Michaelis-Menten constant (Km) in data set [1] was 5.8 ± 0.4 µM; in data set [2] it was 7.2 ± 0.5 µM; in data set [3], 9.6 ± 0.4 µM; in data set [4] it was 5,200 ± 500 μM; in data set [5], 4,400 ± 700 μM. The kcat in data set [1] was 3.4 ± 0.1 s⁻¹; in data set [2] it was 5.9 ± 0.1 s⁻¹; in data set [3], 6 ± 0.1 s⁻¹; in data set [4], 6.4 ± 0.2 s⁻¹; in data set [5], 1.5 ± 0.1 s⁻¹. Besides, the kcat/Km in data set [1] amounted to 590000 ± 40000 M⁻¹ s⁻¹; in data set [2], 820000 ± 60000 M⁻¹ s⁻¹; in data set [3], 630000 ± 20000 M⁻¹ s⁻¹; in data set [4], 1200 ± 100 M⁻¹ s⁻¹; in data set [5] it was 340 ± 50 M⁻¹ s⁻¹.
